Key:
[1] = biological target: T1, human PD-L1-Fc chimeric protein (human, UniProt Q9NZQ7 19-238); assay: SPR Biacore T200, PD-L1-Fc captured by anti-human Fc
T1 construct: not shown: Fc part, captured by an anti-human IgG Fc antibody

[2] = biological target: human PD-L1 expressed on cells (human, UniProt Q9NZQ7 19-290); assay: cell-based or functional assay
human serum albumin = biological target: T2, human serum albumin (human, UniProt P02768 25-609); assay: SPR Biacore T200, SA amine-coupled to CM5 chip, pH 5.5
T2 construct: also called HSA; human SA

IC50 (ng/ml), NF-AT Potency assay [2] [ng/mL] | Binder | also measured
93.8 | PRO1059 (bispecific antibody, human IgG1, kappa, L234A L235A) light: DIQMTQSPSSLSASVGDRVTITCQASQSINDYLAWYQQKPGKAPKLLIYKASTLASGVPSRFSGSGSGTDFTLTISSLQPEDFATYYCQQGYIITDIDNVFGTGTKVTVLGTVAAPSVFIFPPSDEQLKSGTASVVCLLNNFYPREAKVQWKVDNALQSGNSQESVTEQDSKDSTYSLSSTLTLSKADYEKHKVYACEVTHQGLSSPVTKSFNRGECGGGGSGGGGSIQMTQSPSSLSASVGDRVTITCQASQSINNVLAWYQQKPGKAPKLLIYRASTLASGVPSRFSGSGSGTDFTLTISSLQPEDFATYYCQSSYGNYGDFGTGTKVTVLGGGGGSGGGGSGGGGSGGGGSQVQLQESGPGLVKPSETLSLTCKVSGFSFSNSYWICWIRQPPGKGLEWIGCTFVGSSDSTYYANWAKGRVTISVDSSKNQFSLKLSSVTAADTAVYYCARHPSDAVYGYANNLWGQGTLVTVSS heavy: QVQLQESGPGLVKPSETLSLTCKVSGFSFSSGYDMCWIRQPPGKGLEWIGCVVAGSVDITYYASWAKGRVTISVDSSKNQFSLKLSSVTAADTAVYYCARKDAYSDAFNLWGQGTLVTVSSASTKGPSVFPLAPSSKSTSGGTAALGCLVKDYFPEPVTVSWNSGALTSGVHTFPAVLQSSGLYSLSSVVTVPSSSLGTQTYICNVNHKPSNTKVDKRVEPKSCDKTHTCPPCPAPEAAGGPSVFLFPPKPKDTLMISRTPEVTCVVVDVSHEDPEVKFNWYVDGVEVHNAKTKPREEQYNSTYRVVSVLTVLHQDWLNGKEYKCKVSNKALGAPIEKTISKAKGQPREPQVYTLPPSREEMTKNQVSLTCLVKGFYPSDIAVEWESNGQPENNYKTTPPVLDSDGSFFLYSKLTVDKSRWQQGNVFSCSVMHEALHNHYTQKSLSLSPGK | 
133 | PRO1060 (bispecific antibody, human IgG1, kappa, L234A L235A) light: DIQMTQSPSSLSASVGDRVTITCQASQSINDYLAWYQQKPGKAPKLLIYKASTLASGVPSRFSGSGSGTDFTLTISSLQPEDFATYYCQQGYIITDIDNVFGTGTKVTVLGTVAAPSVFIFPPSDEQLKSGTASVVCLLNNFYPREAKVQWKVDNALQSGNSQESVTEQDSKDSTYSLSSTLTLSKADYEKHKVYACEVTHQGLSSPVTKSFNRGEC heavy: QVQLQESGPGLVKPSETLSLTCKVSGFSFSSGYDMCWIRQPPGKGLEWIGCVVAGSVDITYYASWAKGRVTISVDSSKNQFSLKLSSVTAADTAVYYCARKDAYSDAFNLWGQGTLVTVSSASTKGPSVFPLAPSSKSTSGGTAALGCLVKDYFPEPVTVSWNSGALTSGVHTFPAVLQSSGLYSLSSVVTVPSSSLGTQTYICNVNHKPSNTKVDKRVEPKSCDKTHTCPPCPAPEAAGGPSVFLFPPKPKDTLMISRTPEVTCVVVDVSHEDPEVKFNWYVDGVEVHNAKTKPREEQYNSTYRVVSVLTVLHQDWLNGKEYKCKVSNKALGAPIEKTISKAKGQPREPQVYTLPPSREEMTKNQVSLTCLVKGFYPSDIAVEWESNGQPENNYKTTPPVLDSDGSFFLYSKLTVDKSRWQQGNVFSCSVMHEALHNHYTQKSLSLSPGKGGGGSGGGGSIQMTQSPSSLSASVGDRVTITCQASQSINNVLAWYQQKPGKAPKLLIYRASTLASGVPSRFSGSGSGTDFTLTISSLQPEDFATYYCQSSYGNYGDFGTGTKVTVLGGGGGSGGGGSGGGGSGGGGSQVQLQESGPGLVKPSETLSLTCKVSGFSFSNSYWICWIRQPPGKGLEWIGCTFVGSSDSTYYANWAKGRVTISVDSSKNQFSLKLSSVTAADTAVYYCARHPSDAVYGYANNLWGQGTLVTVSS | 
21.3 | PRO1013 (scFv) scFv: DIQMTQSPSSLSASVGDRVTITCQASQSIGTYLAWYQQKPGKAPKLLIYRAFILASGVPSRFSGSGSGTDFTLTISSLQPEDFATYYCQSNFYSDSTTIGPNAFGTGTKVTVLGGGGGSGGGGSGGGGSGGGGSQVQLVQSGAEVKKPGASVKVSCKASGFSFNSDYWIYWVRQAPGQGLEWMGSIYGGSSGNTQYASWAQGRVTMTRDTSISTAYMELSSLRSEDTAVYYCARGYVDYGGATDLWGQGTLVTVSS | 

Continued, binder first:

Binder | IC50 (ng/ml), NF-AT Potency assay [2] [ng/mL] | also measured
PRO1123 (bispecific antibody, also called 38-02-A04 sc05 IF scDb-i/33 03 G02 sc01 scDb-o) DIQMTQSPSSLSASVGDRVTITCQASQSINDYLAWYQQKPGKAPKLLIYKASTLASGVPSRFSGSGSGTDFTLTISSLQPEDFATYYCQQGYIITDIDNVFGTGTKVTVLGGGGGSQVQLQESGPGLVKPSETLSLTCKVSGFSFSNSYWICWVRQPPGKGLEWIGCTFVGSSDSTYYANWAKGRVTISVDSSKNQVSLKLSSVTAADTAVYFCARHPSDAVYGYANNLWGQGTLVTVSSGGGGSGGGGSGGGGSGGGGSIQMTQSPSSLSASVGDRVTITCQASQSINNVLAWYQQKPGKPPKLLIYRASTLASGVPSRFSGSGSGTDFTLTISSLQPEDFATYYCQSSYGNYGDFGTGTKVTVLGGGGGSQVQLQESGPGLVKPSETLSLTCKVSGFSFSSGYDMCWIRQPPGKGLEWIGCVVAGSVDITYYASWAKGRVTISVDSSKNQFSLKLSSVTAADTAVYYCARKDAYSDAFNLWGQGTLVTVSS |  | binding result [1]: binds
PRO951 (bispecific antibody) DIQMTQSPSSLSASVGDRVTITCQASQSINDYLAWYQQKPGKAPKLLIYKASTLASGVPSRFSGSGSGTDFTLTISSLQPEDFATYYCQQGYIITDIDNVFGTGTKVTVLGGGGGSEVQLVESGGGLVQPGGSLRLSCAASGFSFNNDYDMCWVRQAPGKGLEWIGCIDTGDGSTYYASWAKGRFTISRDNSKNTVYLQMNSLRAEDTAVYYCAREAASSSGYGMGYFDLWGQGTLVTVSSGGGGSGGGGSGGGGSGGGGSIQMTQSPSSLSASVGDRVTITCQSSQSVYDNNWLAWYQQKPGKAPKLLIYRASNLASGVPSRFSGSGSGTDFTLTISSLQPEDFATYYCQGTYLSSNWYWAFGTGTKVTVLGGGGGSQVQLQESGPGLVKPSETLSLTCKVSGFSFSSGYDMCWIRQPPGKGLEWIGCVVAGSVDITYYASWAKGRVTISVDSSKNQFSLKLSSVTAADTAVYYCARKDAYSDAFNLWGQGTLVTVSS | 88.5 | 
PRO963 (other, also called PRO1051; 38_02_A04 sc01 scDb-i/33-03-G02 sc01 scDb-o/19-01-H04-sc03 scFv) DIQMTQSPSSLSASVGDRVTITCQASQSINDYLAWYQQKPGKAPKLLIYKASTLASGVPSRFSGSGSGTDFTLTISSLQPEDFATYYCQQGYIITDIDNVFGTGTKVTVLGGGGGSQVQLQESGPGLVKPSETLSLTCKVSGFSFSNSYWICWIRQPPGKGLEWIGCTFVGSSDSTYYANWAKGRVTISVDSSKNQFSLKLSSVTAADTAVYYCARHPSDAVYGYANNLWGQGTLVTVSSGGGGSGGGGSGGGGSGGGGSIQMTQSPSSLSASVGDRVTITCQASQSINNVLAWYQQKPGKAPKLLIYRASTLASGVPSRFSGSGSGTDFTLTISSLQPEDFATYYCQSSYGNYGDFGTGTKVTVLGGGGGSQVQLQESGPGLVKPSETLSLTCKVSGFSFSSGYDMCWIRQPPGKGLEWIGCVVAGSVDITYYASWAKGRVTISVDSSKNQFSLKLSSVTAADTAVYYCARKDAYSDAFNLWGQGTLVTVSSGGGGSGGGGSIQMTQSPSSLSASVGDRVTITCQSSESVYSNNQLSWYQQKPGQPPKLLIYDASDLASGVPSRFSGSGSGTDFTLTISSLQPEDFATYYCAGGFSSSSDTAFGGGTKLTVLGGGGGSGGGGSGGGGSGGGGSEVQLVESGGGLVQPGGSLRLSCAASGFSLSSNAMGWVRQAPGKGLEYIGIISVGGFTYYASWAKGRFTISRDNSKNTVYLQMNSLRAEDTATYFCARDRHGGDSSGAFYLWGQGTLVTVSS |  | IC50 (ng/ml), NF-AT Potency assay, with HSA [2]: 275 ng/mL; binding result (human serum albumin): binds
PRO830 (scFv) scFv: DIQMTQSPSSLSASVGDRVTITCQASQSINDYLAWYQQKPGKAPKLLIYKASTLASGVPSRFSGSGSGTDFTLTISSLQPEDFATYYCQQGYIITDIDNVFGTGTKVTVLGGGGGSGGGGSGGGGSGGGGSQVQLQESGPGLVKPSETLSLTCKVSGFSFSSGYDMCWIRQPPGKGLEWIGCVVAGSVDITYYASWAKGRVTISVDSSKNQFSLKLSSVTAADTAVYYCARKDAYSDAFNLWGQGTLVTVSS | 42.9 | 

— EP3470429A1 (Numab Innovation AG, dated 2019)
